# Measured values reported in patent US20080312140A1 (published 2008).
# Starred links: 1 amine or outer side, 2 acyl side, 3 side chain; linkers in the order of their positions; H or OH if unused. No end group written: not given here. N(2-Aminoethyl)Gly = O=C(CN(CCN[*:3])[*:1])[*:2]
# B1: C2-1 (peptide)
# peptide: RQGSFG-NH2
# modifications: bridge (positions not given here) via N(2-Aminoethyl)Gly; also: backbone cyclised via N-(aminoethyl)Gly building unit and dicarboxylic acid bridge (m=2), structure in drawing only
# B2: C2-2 (peptide)
# peptide: RQGSFG-NH2
# modifications: bridge (positions not given here) via N(2-Aminoethyl)Gly; also: backbone cyclised via N-(aminoethyl)Gly building unit and dicarboxylic acid bridge (m=3), structure in drawing only
# B3: C2-3 (peptide)
# peptide: RQGSFG-NH2
# modifications: bridge (positions not given here) via N(2-Aminoethyl)Gly; also: backbone cyclised via N-(aminoethyl)Gly building unit and dicarboxylic acid bridge (m=4), structure in drawing only
# Molecular target: HIV-1 envelope glycoprotein gp120 (HIV-1)
# Experiment: cell-based or functional assay
binder,measurement,value
B1,"IC50 of infection inhibition (Cell Infection Inhibition Assay, CD4 expressing Hela P4 cells)",33 µM
B2,"IC50 of infection inhibition (Cell Infection Inhibition Assay, CD4 expressing Hela P4 cells)",81 µM
B3,"IC50 of infection inhibition (Cell Infection Inhibition Assay, CD4 expressing Hela P4 cells)",81 µM
